The values below come from US20090041767A1, “PHARMACEUTICAL COMBINATIONS” (priority 2007, published 2009).

For the assay, the target named is mouse α5β1 (Mus musculus, UniProt P09055+P11688). Put plainly: antibody binding to mouse α5β1 integrin.
Sequence of mouse α5β1 (P11688 45-1053): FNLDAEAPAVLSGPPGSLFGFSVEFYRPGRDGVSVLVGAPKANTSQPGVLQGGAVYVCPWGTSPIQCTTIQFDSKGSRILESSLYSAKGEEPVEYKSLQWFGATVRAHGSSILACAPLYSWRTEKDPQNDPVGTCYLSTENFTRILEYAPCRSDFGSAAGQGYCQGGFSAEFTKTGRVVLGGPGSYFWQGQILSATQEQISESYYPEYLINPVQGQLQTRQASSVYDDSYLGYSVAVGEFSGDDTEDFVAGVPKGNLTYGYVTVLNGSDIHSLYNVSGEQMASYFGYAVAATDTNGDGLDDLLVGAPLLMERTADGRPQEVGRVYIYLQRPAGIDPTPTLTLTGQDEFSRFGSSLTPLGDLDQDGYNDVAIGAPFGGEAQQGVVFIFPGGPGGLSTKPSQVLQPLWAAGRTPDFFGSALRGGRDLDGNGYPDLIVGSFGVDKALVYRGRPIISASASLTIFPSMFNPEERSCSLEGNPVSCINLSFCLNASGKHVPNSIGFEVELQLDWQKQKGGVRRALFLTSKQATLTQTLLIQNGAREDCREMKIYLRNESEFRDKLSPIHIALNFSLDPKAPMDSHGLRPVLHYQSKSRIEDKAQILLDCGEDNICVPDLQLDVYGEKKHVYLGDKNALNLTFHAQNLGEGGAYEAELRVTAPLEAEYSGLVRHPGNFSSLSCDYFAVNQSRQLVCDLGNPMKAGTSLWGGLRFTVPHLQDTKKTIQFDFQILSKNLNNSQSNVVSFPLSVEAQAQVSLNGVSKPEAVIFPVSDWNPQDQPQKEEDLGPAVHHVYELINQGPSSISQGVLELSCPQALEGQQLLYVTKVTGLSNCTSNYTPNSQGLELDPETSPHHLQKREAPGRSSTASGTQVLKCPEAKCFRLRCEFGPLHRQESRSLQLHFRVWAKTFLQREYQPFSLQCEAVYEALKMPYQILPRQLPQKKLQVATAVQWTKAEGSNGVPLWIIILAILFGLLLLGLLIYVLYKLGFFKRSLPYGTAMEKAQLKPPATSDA
Sequence of mouse α5β1 (P09055 21-798): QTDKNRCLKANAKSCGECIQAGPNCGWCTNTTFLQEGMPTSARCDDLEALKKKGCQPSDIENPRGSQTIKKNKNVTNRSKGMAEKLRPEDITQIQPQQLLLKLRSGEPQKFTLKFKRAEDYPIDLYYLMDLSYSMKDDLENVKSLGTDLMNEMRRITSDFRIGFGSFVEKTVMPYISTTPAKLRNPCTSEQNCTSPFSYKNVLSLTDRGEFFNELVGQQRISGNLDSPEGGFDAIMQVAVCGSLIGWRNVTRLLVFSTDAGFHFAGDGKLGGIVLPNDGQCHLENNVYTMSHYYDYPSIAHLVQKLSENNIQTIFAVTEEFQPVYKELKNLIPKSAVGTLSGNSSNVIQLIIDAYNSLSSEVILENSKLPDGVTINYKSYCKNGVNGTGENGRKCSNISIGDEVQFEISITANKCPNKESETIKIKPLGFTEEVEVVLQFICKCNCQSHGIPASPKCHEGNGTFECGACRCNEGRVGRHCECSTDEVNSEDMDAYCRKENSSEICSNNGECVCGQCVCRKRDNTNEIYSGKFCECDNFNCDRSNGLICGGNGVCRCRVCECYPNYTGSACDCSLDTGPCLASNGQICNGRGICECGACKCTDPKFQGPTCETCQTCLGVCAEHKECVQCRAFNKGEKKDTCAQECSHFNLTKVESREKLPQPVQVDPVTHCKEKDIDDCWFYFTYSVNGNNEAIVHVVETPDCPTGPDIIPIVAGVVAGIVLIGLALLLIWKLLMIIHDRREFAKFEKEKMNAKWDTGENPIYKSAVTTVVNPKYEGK

B1: 339.1: monoclonal antibody that targets murine α5β1; volociximab surrogate; VH SEQ ID NO: 22, VL SEQ ID NO: 23 (antibody, V domains shown)
VH: MDIRLSLAFLVLFIKGVQCEVYLVESGGGSVQPGRSTKLSCAASEFTFSTSSMAWVRQAPTKGLEWVATISSSGEYTYYRDSVKGRFTISRDNAKSTLYLQMNSLRSEDTATYYCTRGVLYWGQGVMVTVSS
VL: MAPVQLLGLLLLCLPAMRCDIQMTQSPSLLSASVGDRVTLNCKSSQNIYKNLNWYQQKLGEPPKLLIHYTDNLQAGIPSRFSGSGSGTDYTLTISSLHPDDVATYFCFQYNRGPTFGAGTKLELK
modifications: heavy chain variable region for mouse volociximab analog; light chain variable region for mouse volociximab analog
As for B1, the “binding to mouse α5β1” value was “binds mouse α5β1 with high affinity”.
